# Experimental data: patent US20110135573A1 (DYAX, published 2011)
# Key:
# [1] = target: T1, Human MMP-9 catalytic domain (BIOMOL, SE-244) (human, UniProt P14780 107-457, limits assumed); test: Ki,app, enzyme inhibition assay (fluorogenic peptide substrate), IgG; told as Ki of 0.92±0.04 nM in Example 2
# T1 construct: domain: catalytic domain; also called Cat-huMMP-9; cat-huMMP-9
# Experimental: (§1) Materials: [0495] Substrate: Mca-KPLGL-Dap(Dnp)-AR-NH₂ (M-2350) from BACHEM (521575). A 10 mM stock solution was prepared in DMSO. [0496] Enzymes: [0497] Human MMP-9 catalytic domain (BIOMOL, SE-244). Enzyme concentration was measured by titration with TIMP-1 (2522-104) [0498] Mouse MMP-9 (R&D, 909-MM), APMA-activated. [0499] M0237-D02 hIgG1: 2517-014. Dialysed against TCN. [0500] TCNB: 50 mM Tris/HCl, 10 mM CaCl₂, 150 mM NaC, […] Brij 35, pH 7.5. [0501] -96-well black plates from Perkin Elmer (6005270) [0502] Spectramax M2e to measure fluorescence emission of the substrate upon hydrolysis (temperature control set at 30° C.; λexc=328 nm and λₑₘ=393 nm)
# (§2) The enzyme (final concentration=0.23 and 0.17 nM for the human and mouse MMP-9, respectively) was preincubated with various concentrations (0-50 nM) of M0237-D02 for 1 h at 30° C. The substrate was then added to a final concentration ranging from 5 to 40 μM and initial rates were recorded.
# [2] = target: T2, human MMP-2 (Biomol #SE-237) (human, UniProt P08253 110-452, limits assumed); test: Ki,app, enzyme inhibition assay (fluorogenic peptide substrate), IgG
# T2 construct: also called hMMP-2
# h-MMP-9/h-TIMP-1 complex [3] = target: T3, h-MMP-9/h-TIMP-1 complex (human, UniProt P14780 107-457; P01033 24-207, limits assumed); test: SPR (Biacore 3000), antibody captured via anti-Fc
# T3 construct: Preformed non-covalent complex flowed over the antibody surfaces; also called huTIMP-1/cat-huMMP-9; h-TIMP-1/h-MMP-9 complex
# Experimental: (§3) Experiments were performed at 25° C. with the help of a Biacore 3000 instrument. The MMP-9 binding protein (M0166F10) and the M0237-D02 antibody were coated to a CM5 chip either via standard amine coupling or using an anti-Fc antibody surface. Then either the active, human MMP-9 catalytic domain (BIOMOL, SE-244), the human pro-MMP-9 (R&D, 911-MP), the human TIMP-1 (R&D, 970-TM) or a h-MMP-9/h-TIMP-1 complex were flowed over the antibody surfaces, and binding was recorded.
# (§4) It was shown that the human MMP-9 catalytic domain binds to M0166-F10, whether this antibody is directly captured via amine coupling or captured with an anti-Fc antibody surface.
# [4] = target: T4, Mouse MMP-9 (R&D, 909-MM), APMA-activated (mouse, UniProt P41245 108-730, limits assumed); test: Ki,app, enzyme inhibition assay (fluorogenic peptide substrate), IgG; told as Ki of 1.3±0.1 nM in Example 2
# T4 construct: also called mMMP-9; mouse MMP-9 (R&D Systems #909-MM-010)
# Experimental: as §1, §2
# [5] = target: T1, Human MMP-9 catalytic domain (BIOMOL, …); test: plot of kobs against antibody concentration, inhibition progress curves
# MMP-9 (PMA-activated) = MMP-9 (PMA-activated) (Homo sapiens (Human), UniProt P14780 107-707, Biotinylated for the phage selection; the biotin sites are not stated and the letters do not carry them.); test: apparent KD; method not stated
# [6] = target: T5, human TIMP-1 (R&D, 970-TM) (human, UniProt P01033 24-207); test: SPR (Biacore 3000), antibody amine-coupled (direct capture)
# T5 construct: also called huTIMP-1; h-TIMP-1
# Experimental: as §3, §4
# h-MMP-9/h-TIMP-1 complex [7] = target: T3, h-MMP-9/h-TIMP-1 complex; test: as above
# Experimental: as §3, §4
# [8] = target: T6, human pro-MMP-9 (R&D, 911-MP) (human, UniProt P14780 20-707); test: as above
# T6 construct: Pro-enzyme; also called Pro-huMMP-9
# Experimental: as §3, §4
# T1 sequence (P14780 107-457 limits assumed): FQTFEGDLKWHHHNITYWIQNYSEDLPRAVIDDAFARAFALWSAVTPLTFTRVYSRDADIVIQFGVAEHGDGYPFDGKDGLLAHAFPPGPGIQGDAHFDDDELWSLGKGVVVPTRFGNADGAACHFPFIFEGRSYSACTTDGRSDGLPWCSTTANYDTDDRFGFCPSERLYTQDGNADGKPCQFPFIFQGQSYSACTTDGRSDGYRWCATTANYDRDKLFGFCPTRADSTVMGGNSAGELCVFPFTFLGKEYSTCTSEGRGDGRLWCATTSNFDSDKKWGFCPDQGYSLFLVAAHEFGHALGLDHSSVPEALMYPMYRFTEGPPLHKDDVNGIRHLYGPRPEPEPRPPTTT
# Sequence of MMP-9 (PMA-activated) (P14780 107-707 limits assumed, form in doubt): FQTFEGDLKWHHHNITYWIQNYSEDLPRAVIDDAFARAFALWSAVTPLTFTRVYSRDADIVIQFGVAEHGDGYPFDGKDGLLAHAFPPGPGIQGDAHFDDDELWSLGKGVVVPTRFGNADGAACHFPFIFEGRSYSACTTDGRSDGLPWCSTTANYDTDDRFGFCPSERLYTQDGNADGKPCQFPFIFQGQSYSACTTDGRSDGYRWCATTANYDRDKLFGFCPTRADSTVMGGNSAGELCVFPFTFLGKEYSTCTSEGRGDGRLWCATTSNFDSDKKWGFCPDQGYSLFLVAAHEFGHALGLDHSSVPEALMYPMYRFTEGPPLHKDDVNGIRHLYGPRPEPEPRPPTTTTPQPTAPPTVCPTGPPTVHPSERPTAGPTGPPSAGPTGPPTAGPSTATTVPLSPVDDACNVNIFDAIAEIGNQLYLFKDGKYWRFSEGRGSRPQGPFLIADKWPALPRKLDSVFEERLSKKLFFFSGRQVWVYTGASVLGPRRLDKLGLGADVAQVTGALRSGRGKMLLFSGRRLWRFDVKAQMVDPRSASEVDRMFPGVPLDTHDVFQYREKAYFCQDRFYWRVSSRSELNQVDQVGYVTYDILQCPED
# T3 sequence (P14780 107-457 limits assumed, chain 1 of 2): as the sequence (P14780 107-457 limits assumed) above
# T3 sequence (P01033 24-207 limits assumed, chain 2 of 2): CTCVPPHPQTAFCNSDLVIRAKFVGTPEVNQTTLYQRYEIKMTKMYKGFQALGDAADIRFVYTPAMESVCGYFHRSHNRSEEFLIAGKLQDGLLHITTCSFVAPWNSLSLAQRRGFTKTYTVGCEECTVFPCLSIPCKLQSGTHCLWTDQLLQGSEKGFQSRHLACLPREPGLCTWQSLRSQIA
# T4 sequence (P41245 108-730 limits assumed): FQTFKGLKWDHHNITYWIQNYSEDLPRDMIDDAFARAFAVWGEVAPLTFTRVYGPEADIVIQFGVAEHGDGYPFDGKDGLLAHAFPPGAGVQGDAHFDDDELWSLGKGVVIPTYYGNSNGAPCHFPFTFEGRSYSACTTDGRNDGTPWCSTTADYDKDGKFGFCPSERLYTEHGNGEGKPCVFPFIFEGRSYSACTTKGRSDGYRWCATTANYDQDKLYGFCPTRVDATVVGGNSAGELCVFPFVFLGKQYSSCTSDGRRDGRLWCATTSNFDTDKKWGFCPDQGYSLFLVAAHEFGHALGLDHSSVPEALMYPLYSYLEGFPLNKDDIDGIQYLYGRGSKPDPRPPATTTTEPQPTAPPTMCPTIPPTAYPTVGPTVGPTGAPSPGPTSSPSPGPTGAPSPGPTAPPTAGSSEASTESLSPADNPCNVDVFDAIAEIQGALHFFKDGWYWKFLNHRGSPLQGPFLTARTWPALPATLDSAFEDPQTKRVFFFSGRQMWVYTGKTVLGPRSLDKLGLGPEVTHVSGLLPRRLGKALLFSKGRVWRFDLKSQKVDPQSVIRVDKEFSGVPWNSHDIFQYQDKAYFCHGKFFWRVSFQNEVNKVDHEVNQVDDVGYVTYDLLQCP
# T6 sequence (P14780 20-707): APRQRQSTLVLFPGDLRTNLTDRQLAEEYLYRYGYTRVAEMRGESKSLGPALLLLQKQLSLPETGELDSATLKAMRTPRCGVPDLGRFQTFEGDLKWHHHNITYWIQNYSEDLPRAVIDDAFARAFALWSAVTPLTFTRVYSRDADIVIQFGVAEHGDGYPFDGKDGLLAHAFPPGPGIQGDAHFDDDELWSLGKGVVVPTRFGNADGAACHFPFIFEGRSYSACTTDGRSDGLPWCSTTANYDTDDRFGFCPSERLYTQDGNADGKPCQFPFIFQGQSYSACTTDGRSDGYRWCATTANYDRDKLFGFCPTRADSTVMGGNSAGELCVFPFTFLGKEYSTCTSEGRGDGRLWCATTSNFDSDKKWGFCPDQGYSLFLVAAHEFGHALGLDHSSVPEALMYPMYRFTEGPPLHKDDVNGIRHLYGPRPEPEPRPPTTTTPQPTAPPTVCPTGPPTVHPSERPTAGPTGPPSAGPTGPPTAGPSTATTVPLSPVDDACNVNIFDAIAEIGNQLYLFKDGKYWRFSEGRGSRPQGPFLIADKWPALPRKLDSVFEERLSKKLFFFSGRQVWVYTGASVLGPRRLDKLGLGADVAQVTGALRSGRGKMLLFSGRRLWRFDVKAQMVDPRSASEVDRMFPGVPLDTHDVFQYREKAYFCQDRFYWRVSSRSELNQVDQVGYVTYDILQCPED
# T5 sequence (P01033 24-207 limits assumed): as the sequence (P01033 24-207 limits assumed, chain 2 of 2) above
# T2 sequence (P08253 110-452 limits assumed): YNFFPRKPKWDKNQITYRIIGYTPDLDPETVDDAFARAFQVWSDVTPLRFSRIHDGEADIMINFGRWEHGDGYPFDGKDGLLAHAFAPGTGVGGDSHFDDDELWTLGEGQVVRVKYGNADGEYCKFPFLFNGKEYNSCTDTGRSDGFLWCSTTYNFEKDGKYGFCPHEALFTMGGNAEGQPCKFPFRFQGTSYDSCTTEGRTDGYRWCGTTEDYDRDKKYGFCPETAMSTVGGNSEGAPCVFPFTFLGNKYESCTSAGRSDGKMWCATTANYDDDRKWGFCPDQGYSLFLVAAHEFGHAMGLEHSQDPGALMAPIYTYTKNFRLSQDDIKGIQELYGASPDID
binder,measurement,setting,value
"539A-M0237-D02 hIgG1 (antibody, V domains shown, Tested as human IgG1 (parental); also called M237-D02; DL8) VH: EVQLLESGGGLVQPGGSLRLSCAASGFTFSQYPMWWVRQAPGKGLEWVSYIVPSGGRTYYADSVKGRFTISRDNSKNTLYLQMNSLRAEDTAVYYCAKDRAYGDYVGWNGFDYWGQGTLVTVSS VL: DIQMTQSPATLSLSPGERATLSCRASQSISSFLAWYQQKPGQAPRLLIYDASYRATGIPARFSGSGSGTDFTLTISSLEPEDYAVYYCQQRGNWPITFGQGTRLEIK",Ki,[1],0.92 nM
same,Ki,[2],17 nM
same,binding result,h-MMP-9/h-TIMP-1 complex [3],no binding
same,Ki,[4],1.3 nM
same,koff,[5],~0.0004 s⁻¹
same,kon,[5],~70000 M⁻¹ s⁻¹
"M0078-G07 (Fab, V domains shown, variable domains only; also called Fab M0078-G07) VH: EVQLLESGGGLVQPGGSLRLSCAASGFTFSSYTMEWVRQAPGKGLEWVSWISPSGGYTFYADSVKGRFTISRDNSKNTLYLQMNSLRAEDTALYYCARGYSYGSIDLWGRGTLVTVSS VL: DIQMTQSPGTLSVSPGERATLSCRASQSVSSDLAWYQHKPGQAPRLLIYGVSTKATGVPARFSGSGSGTEFTLTISSLQSEDLAVYYCQQYHNWPPLTFGGGTKVEIK",Kd,MMP-9 (PMA-activated),3.1 nM
"539A-M0166-F10 (antibody, V domains shown, also called DL15) VH: EVQLLESGGGLVQPGGSLRLSCAASGFTFSPYLMNWVRQAPGKGLEWVSSIYSSGGGTGYADSVKGRFTISRDNSKNTLYLQMNSLRAEDTAVYYCARIYHSSSGPFYGMDVWGQGTTVTVSS VL: QSELTQPPSASAAPGQRVTISCSGSSSNIGSNTVTWYQKLPGTAPKLLIYNNYERPSGVPARFSGSKSGTSASLAISGLQSEDEADYYCATWDDSLIANYVFGSGTKVTVLG",binding result,[6],no binding
same,binding result,h-MMP-9/h-TIMP-1 complex [7],no binding
same,binding result,[8],no binding
"M0076-D03 (Fab, V domains shown, variable domains only) VH: EVQLLESGGGLVQPGGSLRLSCAASGFTFSLYRMNWVRQAPGKGLEWVSYIGSSGGATAYADSVKGRFTISRDNSKNTLYLQMNSLRAEDTAVYYCARGAWYLDSWGQGTLVTVSS VL: DIQMTQSPSSLSASVGDRVTITCRASQGIRNDLDWYQQKPGTAPKRLIYSASNLQSGVPSRFSGSGSGTEFTLTISNLQPEDLATYFCLQHNSFPLTFGQGTKVEIK",Kd,MMP-9 (PMA-activated),5.9 nM
